Reference: patent US7892775B2, “Fluorescence assay for kinase activity” (Massachusetts Institute of Technology, priority 2003, dated 2011)
Marks after values point to notes of the source that are not given here. Sox = metal binding amino acid

Assays:
[1] = target: T1, cAMP-dependent Protein Kinase (Catalytic Subunit) (Mus musculus, UniProt P05132); assay: Continuous fluorescence kinase assay, kinetic constants of Sox peptide substrate with PKA; type: biochemical; settings: 20 mM HEPES pH 7.4, 10 mM MgCl2, 1 mM ATP, 1 mM DTT, 40 units PKA, 30° C.; average of four Hanes plots
T1 construct: purchased Calbiochem
Experimental: A typical reaction contained solution 5 (90 μl), solution 6 (20 μl), solution 7 (1 μl) and an appropriate volume of substrate stock solution. Enzyme working stock (1 μl) was added to begin the reaction.
5 nm emission and excitation slit widths were used.
Substitution of (2) into (I) followed by rearrangement, yields: […]

Protein Kinase Cα = Protein Kinase Cα (Homo sapiens, UniProt P17252); settings: 20 mM HEPES pH 7.4, 10 mM MgCl2, 0.3 mM CaCl2, 1 mM ATP, 0.7 nM PKCα, 30° C.; average of four Hanes plots
Experimental: PKC: On the day of the assay, a 1 μl aliquot of Protein Kinase Cα (Human, Recombinant, Calbiochem) was diluted with 20 μl of solution 4 and stored on ice. A typical reaction contained solution 4 (84 μl), solution 6 (19 μl), solution 8 (5 μl), solution 7 (1 μl), and enzyme working stock (1 μl). An appropriate volume of substrate stock solution was added to begin the reaction.
Fluorescence experiments were performed on a Fluoromax 3 from Jobin Yvon. 5 nm emission and excitation slit widths were used. For all experiments, an excitation wavelength of 360 nm was used. Enzyme assays were performed by monitoring emission at 485 nm.
To solve for Km and Vmax for this reaction, determination of the initial rate of product formation from the increase in fluorescence intensity is necessary. With this sensor, a correction for the decrease in fluorescence intensity due to the starting material being consumed is needed to determine the rate of product formation from the initial slope. The fluorescence intensity at any given point can be determined from the following equation: I(t)=fSS(t)+fPP(t) (1) where I(t) is the fluorescence intensity, S(t) is the amount of substrate in μM, P(t) is the amount of product in μM, fS is the fluorescence intensity per μM) of substrate, and fP is fluorescence intensity per μM of product. The amount of substrate and product at any given point are related by: S(t)+P(t)=S0 (2) where S0 is the initial amount of substrate. Substitution of (2) into (I) followed by rearrangement, yields:
The initial slope of the reaction, dI(t)/dt, was measured within the first 5% of substrate turnover. The constants fP and fS were calculated from the slope of a line of fluorescence intensity versus concentration of P and S, respectively. A linear fit of a Hanes plot ([…]) was used to find Km and Vmax.

Substance | Km [1] | Vmax [1] | Km (Protein Kinase Cα) | Vmax (Protein Kinase Cα)
Ac-Leu-Arg-Arg-Ala-Ser-Leu-Pro-Sox-NH2 (Ac-LRRASLP-{Sox-NH2}) [Ac-LRRAS*LP-Sox-NH2, Sox-containing peptide substrate (sensor) for PKA] | 1.8 ± 0.5 µM | 3.7 ± 1.6^f μmol/min/mg | – | –
Ac-Sox-Pro-Gly-Ser-Phe-Arg-Arg-Arg-NH2 [Ac-Sox-PGS*FRRR-NH2] | – | – | 8.6 ± 2.9 µM | 5.9 ± 1.9^d μmol/min/mg
Ac-Sox-Pro-Gly-Thr-Phe-Arg-Arg-Arg-NH2 ({Ac-Sox}-PGTFRRR-NH2) [Ac-Sox-PGT*FRRR-NH2] | – | – | 23 ± 3 µM | 2.3 ± 0.6^d μmol/min/mg
